Reference: paper PMC12260524, “Identification of a VPS29 isoform with restricted association to Retriever and Retromer accessory proteins through autoinhibition” (Proceedings of the National Academy of Sciences of the …, 2025)

Biological target: GST-VPS29C (human, UniProt F8VXU5 1-214)
Assay: ITC; 300 μM peptide titrated into 10 μM GST-tagged VPS29C, 25 °C, 50 mM Tris-HCl pH 7.5, 200 mM NaCl, 2 mM β-mercaptoethanol; single-site model
Settings: both partners purified

Kd: > 100 µM
B1: VPS35L 16 to 38 (peptide)
peptide: EFASCRLEAVPLEFGDYHPLKPI
notes: also called VPS35L Pro-Leu motif containing peptide
